The source of these data is patent US20250171562A1.

For experiment [1], the target named is mixture of three Der p 2 specific recombinant human IgE clones H10, H12, P4E (human) (UniProt P01854). The experiment in a line: RBL-SX38 IgE displacement, FACS.
The target in experiment [2] is IgE on basophils of allergic donors (human) (UniProt P01854). The experiment in a line: displacement of IgE from FcεRI on basophils, whole blood of an allergic donor, flow cytometry of surface IgE [panel C].
The target is the same in experiment [3]. The experiment in a line: displacement of IgE from FcεRI on basophils, whole blood of an allergic donor, flow cytometry of surface IgE [panel B].
The target is the same in experiment [4]. Kind of experiment: IgE surface stain on donor basophils, flow cytometry.

Chain of mixture of three Der p 2 specific recombinant human IgE clones H10, H12, P4E (human) (P01854 other isoform, or with tags, fused parts or gaps): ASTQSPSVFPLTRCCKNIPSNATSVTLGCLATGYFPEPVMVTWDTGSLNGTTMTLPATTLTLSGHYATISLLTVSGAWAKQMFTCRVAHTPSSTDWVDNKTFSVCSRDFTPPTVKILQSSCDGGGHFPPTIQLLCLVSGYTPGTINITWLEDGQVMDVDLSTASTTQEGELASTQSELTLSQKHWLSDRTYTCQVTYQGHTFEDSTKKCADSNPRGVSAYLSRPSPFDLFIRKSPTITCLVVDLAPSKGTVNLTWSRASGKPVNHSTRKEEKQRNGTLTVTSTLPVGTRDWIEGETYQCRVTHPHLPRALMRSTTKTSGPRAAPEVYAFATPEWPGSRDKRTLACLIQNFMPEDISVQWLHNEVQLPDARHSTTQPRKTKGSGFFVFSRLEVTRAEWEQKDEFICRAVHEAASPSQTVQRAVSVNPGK
Chain of IgE on basophils of allergic donors (human) (P01854 1-428): as the sequence (P01854 other isoform, or with tags, fused parts or gaps) above, with K428L counted along it

B1: CIgG4B1A1(RS) (Fc fusion)
chain 1: GPPCPPCPAPEFLGGPSVFLFPPKPKDTLMISRTPEVTCVVVDVSQEDPEVQFNWYVDGVEVHNAKTKPREEQFNSTYRVVSVLTVLHQDWLNGKEYKCKVSNKGLPSSIEKTISKAKGQPREPQVYTLPPCQEEMTKNQVSLWCLVKGFYPSDIAVEWESNGQPENNYKTTPPVLDSDGSFFLYSRLTVDKSRWQEGNVFSCSVMHEALHNHYTQKSLSLSLGKRSQVQLQESGGGLVQTGGSLRLSCAVHGRTFSNTGMGWFRQAPGNERQFVAIISPSGTSTYYADSVKGRFTISRDPAKNTVYLQMNSLKMDDTAVYYCAASYGSNWSTLRHQRRNEYDAWGQGTQVAVS
chain 2: GPPCPPCPAPEFLGGPSVFLFPPKPKDTLMISRTPEVTCVVVDVSQEDPEVQFNWYVDGVEVHNAKTKPREEQFNSTYRVVSVLTVLHQDWLNGKEYKCKVSNKGLPSSIEKTISKAKGQPREPQVCTLPPSQEEMTKNQVSLSCAVKGFYPSDIAVEWESNGQPENNYKTTPPVLDSDGSFFLVSRLTVDKSRWQEGNVFSCSVMHEALHNHYTQKSLSLSLGKRSEVQLLESGGGLVQPGGSLRLSCAASGFTFGNYDMAWVRQAPGKRPEWVSSIDTGGDITHYADSVKGRFTISRDNAKNTLYLQMNSLRPEDTAVYWCATDEEYALGPNEFDYYGQGTLVTVSS
By EC50 is commonly meant the concentration giving half of the maximal effect. One may read the EC50 (read off the curve) as the concentration that produces a half-maximal response. Take B1: in experiment [1], the EC50 was determined as 84.9 nM. For the same molecule, the Max effect/effect 1 µM in experiment [1] worked out at 92%. Moreover, the EC50 (read off the curve) in experiment [2] amounted to 20 nM; in experiment [3], 10 nM.

B2: A2+B1 (protein)
VHH 1: EVQLLESGGGLVQPGGSLRLSCAASGFRFGNYDMAWVRQAPGKRYEWVSSIDTGGDITHYADSVKGRFTISRDNAKNTLYLQMNSLRPEDTAEYWCATDEEYALGPNEFDYYGQGTLVTVS
VHH 2: QVQLQESGGGLVQTGGSLRLSCAVHGRTFSNTGMGWFRQAPGNERQFVAIISPSGTSTYYADSVKGRFTISRDPAKNTVYLQMNSLKMDDTAVYYCAASYGSNWSTLRHQRRNEYDAWGQGTQVAVS
B2 displayed a displacement effect on IgE surface expression in experiment [4] of 100%.

B3: CIgG4B1A1(G4S3) (Fc fusion)
chain 1: GPPCPPCPAPEFLGGPSVFLFPPKPKDTLMISRTPEVTCVVVDVSQEDPEVQFNWYVDGVEVHNAKTKPREEQFNSTYRVVSVLTVLHQDWLNGKEYKCKVSNKGLPSSIEKTISKAKGQPREPQVYTLPPCQEEMTKNQVSLWCLVKGFYPSDIAVEWESNGQPENNYKTTPPVLDSDGSFFLYSRLTVDKSRWQEGNVFSCSVMHEALHNHYTQKSLSLSLGKGGGGSGGGGSGGGGSQVQLQESGGGLVQTGGSLRLSCAVHGRTFSNTGMGWFRQAPGNERQFVAIISPSGTSTYYADSVKGRFTISRDPAKNTVYLQMNSLKMDDTAVYYCAASYGSNWSTLRHQRRNEYDAWGQGTQVAVS
chain 2: GPPCPPCPAPEFLGGPSVFLFPPKPKDTLMISRTPEVTCVVVDVSQEDPEVQFNWYVDGVEVHNAKTKPREEQFNSTYRVVSVLTVLHQDWLNGKEYKCKVSNKGLPSSIEKTISKAKGQPREPQVCTLPPSQEEMTKNQVSLSCAVKGFYPSDIAVEWESNGQPENNYKTTPPVLDSDGSFFLVSRLTVDKSRWQEGNVFSCSVMHEALHNHYTQKSLSLSLGKGGGGSGGGGSGGGGSEVQLLESGGGLVQPGGSLRLSCAASGFTFGNYDMAWVRQAPGKRPEWVSSIDTGGDITHYADSVKGRFTISRDNAKNTLYLQMNSLRPEDTAVYWCATDEEYALGPNEFDYYGQGTLVTVSS
In the case of B3, in experiment [1], the EC50 was 14.1 nM and the Max effect/effect 1 µM came to 99%. The molecule also gave a concentration giving a half-maximal response (EC50 (read off the curve)) in experiment [2] of 4 nM. Further, in experiment [3], the EC50 (read off the curve) was found to be 6 nM.

B4: CIgG4F6A1(G4S)3 (Fc fusion)
chain 1: GPPCPPCPAPEFLGGPSVFLFPPKPKDTLMISRTPEVTCVVVDVSQEDPEVQFNWYVDGVEVHNAKTKPREEQFNSTYRVVSVLTVLHQDWLNGKEYKCKVSNKGLPSSIEKTISKAKGQPREPQVYTLPPCQEEMTKNQVSLWCLVKGFYPSDIAVEWESNGQPENNYKTTPPVLDSDGSFFLYSRLTVDKSRWQEGNVFSCSVMHEALHNHYTQKSLSLSLGKGGGGSGGGGSGGGGSDVQLQESGGGLVQAGGSLRLSCAASGLTFGSYDMGWYRQAPGKQRELVGRIRNDGITYYADSVKGRFTMSRDNAKNTVYLQMNSLKPEDTAVYYCAADGTGLGHYDYWGQGTQVTVS
chain 2: GPPCPPCPAPEFLGGPSVFLFPPKPKDTLMISRTPEVTCVVVDVSQEDPEVQFNWYVDGVEVHNAKTKPREEQFNSTYRVVSVLTVLHQDWLNGKEYKCKVSNKGLPSSIEKTISKAKGQPREPQVCTLPPSQEEMTKNQVSLSCAVKGFYPSDIAVEWESNGQPENNYKTTPPVLDSDGSFFLVSRLTVDKSRWQEGNVFSCSVMHEALHNHYTQKSLSLSLGKGGGGSGGGGSGGGGSEVQLLESGGGLVQPGGSLRLSCAASGFTFGNYDMAWVRQAPGKRPEWVSSIDTGGDITHYADSVKGRFTISRDNAKNTLYLQMNSLRPEDTAVYWCATDEEYALGPNEFDYYGQGTLVTVSS
With B4, in experiment [1], the 50% effective concentration (EC50) was determined as 7.9 nM and the Max effect/effect 1 µM stood at 90%.

B5: NIgG4B1A1(G4S)1 (Fc fusion)
chain 1: QVQLQESGGGLVQTGGSLRLSCAVHGRTFSNTGMGWFRQAPGNERQFVAIISPSGTSTYYADSVKGRFTISRDPAKNTVYLQMNSLKMDDTAVYYCAASYGSNWSTLRHQRRNEYDAWGQGTQVAVSGGGGSGPPCPPCPAPEFLGGPSVFLFPPKPKDTLMISRTPEVTCVVVDVSQEDPEVQFNWYVDGVEVHNAKTKPREEQFNSTYRVVSVLTVLHQDWLNGKEYKCKVSNKGLPSSIEKTISKAKGQPREPQVYTLPPCQEEMTKNQVSLWCLVKGFYPSDIAVEWESNGQPENNYKTTPPVLDSDGSFFLYSRLTVDKSRWQEGNVFSCSVMHEALHNHYTQKSLSLSLGK
chain 2: EVQLLESGGGLVQPGGSLRLSCAASGFTFGNYDMAWVRQAPGKRPEWVSSIDTGGDITHYADSVKGRFTISRDNAKNTLYLQMNSLRPEDTAVYWCATDEEYALGPNEFDYYGQGTLVTVSSGGGGSGPPCPPCPAPEFLGGPSVFLFPPKPKDTLMISRTPEVTCVVVDVSQEDPEVQFNWYVDGVEVHNAKTKPREEQFNSTYRVVSVLTVLHQDWLNGKEYKCKVSNKGLPSSIEKTISKAKGQPREPQVCTLPPSQEEMTKNQVSLSCAVKGFYPSDIAVEWESNGQPENNYKTTPPVLDSDGSFFLVSRLTVDKSRWQEGNVFSCSVMHEALHNHYTQKSLSLSLGK
For B5, in experiment [1], the EC50 was determined as 3 nM and the Max effect/effect 1 µM is 99%. Further, the EC50 (read off the curve) in experiment [2] turned out to be 3 nM. The same molecule displayed an EC50 (read off the curve) in experiment [3] of 4 nM.

B6: CIgG4B1A1(G4S)2 (Fc fusion)
chain 1: GPPCPPCPAPEFLGGPSVFLFPPKPKDTLMISRTPEVTCVVVDVSQEDPEVQFNWYVDGVEVHNAKTKPREEQFNSTYRVVSVLTVLHQDWLNGKEYKCKVSNKGLPSSIEKTISKAKGQPREPQVYTLPPCQEEMTKNQVSLWCLVKGFYPSDIAVEWESNGQPENNYKTTPPVLDSDGSFFLYSRLTVDKSRWQEGNVFSCSVMHEALHNHYTQKSLSLSLGKGGGGSGGGGSQVQLQESGGGLVQTGGSLRLSCAVHGRTFSNTGMGWFRQAPGNERQFVAIISPSGTSTYYADSVKGRFTISRDPAKNTVYLQMNSLKMDDTAVYYCAASYGSNWSTLRHQRRNEYDAWGQGTQVAVS
chain 2: GPPCPPCPAPEFLGGPSVFLFPPKPKDTLMISRTPEVTCVVVDVSQEDPEVQFNWYVDGVEVHNAKTKPREEQFNSTYRVVSVLTVLHQDWLNGKEYKCKVSNKGLPSSIEKTISKAKGQPREPQVCTLPPSQEEMTKNQVSLSCAVKGFYPSDIAVEWESNGQPENNYKTTPPVLDSDGSFFLVSRLTVDKSRWQEGNVFSCSVMHEALHNHYTQKSLSLSLGKGGGGSGGGGSEVQLLESGGGLVQPGGSLRLSCAASGFTFGNYDMAWVRQAPGKRPEWVSSIDTGGDITHYADSVKGRFTISRDNAKNTLYLQMNSLRPEDTAVYWCATDEEYALGPNEFDYYGQGTLVTVSS
For the molecule B6, in experiment [1], the EC50 was found to be 19.5 nM and the Max effect/effect 1 µM turned out to be 99%. The same molecule had an EC50 (read off the curve) in experiment [2] of 3 nM. The same molecule returned an EC50 (read off the curve) in experiment [3] of 4 nM.

B7: CIgG4F6A1(G4S)2 (Fc fusion)
chain 1: GPPCPPCPAPEFLGGPSVFLFPPKPKDTLMISRTPEVTCVVVDVSQEDPEVQFNWYVDGVEVHNAKTKPREEQFNSTYRVVSVLTVLHQDWLNGKEYKCKVSNKGLPSSIEKTISKAKGQPREPQVYTLPPCQEEMTKNQVSLWCLVKGFYPSDIAVEWESNGQPENNYKTTPPVLDSDGSFFLYSRLTVDKSRWQEGNVFSCSVMHEALHNHYTQKSLSLSLGKGGGGSGGGGSDVQLQESGGGLVQAGGSLRLSCAASGLTFGSYDMGWYRQAPGKQRELVGRIRNDGITYYADSVKGRFTMSRDNAKNTVYLQMNSLKPEDTAVYYCAADGTGLGHYDYWGQGTQVTVS
chain 2: GPPCPPCPAPEFLGGPSVFLFPPKPKDTLMISRTPEVTCVVVDVSQEDPEVQFNWYVDGVEVHNAKTKPREEQFNSTYRVVSVLTVLHQDWLNGKEYKCKVSNKGLPSSIEKTISKAKGQPREPQVCTLPPSQEEMTKNQVSLSCAVKGFYPSDIAVEWESNGQPENNYKTTPPVLDSDGSFFLVSRLTVDKSRWQEGNVFSCSVMHEALHNHYTQKSLSLSLGKGGGGSGGGGSEVQLLESGGGLVQPGGSLRLSCAASGFTFGNYDMAWVRQAPGKRPEWVSSIDTGGDITHYADSVKGRFTISRDNAKNTLYLQMNSLRPEDTAVYWCATDEEYALGPNEFDYYGQGTLVTVSS
Regarding B7, in experiment [1], the concentration giving a half-maximal response (EC50) was found to be 16.6 nM and the Max effect/effect 1 µM turned out to be 98%.

B8: CIgG4B1A1(G4S)1 (Fc fusion)
chain 1: GPPCPPCPAPEFLGGPSVFLFPPKPKDTLMISRTPEVTCVVVDVSQEDPEVQFNWYVDGVEVHNAKTKPREEQFNSTYRVVSVLTVLHQDWLNGKEYKCKVSNKGLPSSIEKTISKAKGQPREPQVYTLPPCQEEMTKNQVSLWCLVKGFYPSDIAVEWESNGQPENNYKTTPPVLDSDGSFFLYSRLTVDKSRWQEGNVFSCSVMHEALHNHYTQKSLSLSLGKGGGGSQVQLQESGGGLVQTGGSLRLSCAVHGRTFSNTGMGWFRQAPGNERQFVAIISPSGTSTYYADSVKGRFTISRDPAKNTVYLQMNSLKMDDTAVYYCAASYGSNWSTLRHQRRNEYDAWGQGTQVAVS
chain 2: GPPCPPCPAPEFLGGPSVFLFPPKPKDTLMISRTPEVTCVVVDVSQEDPEVQFNWYVDGVEVHNAKTKPREEQFNSTYRVVSVLTVLHQDWLNGKEYKCKVSNKGLPSSIEKTISKAKGQPREPQVCTLPPSQEEMTKNQVSLSCAVKGFYPSDIAVEWESNGQPENNYKTTPPVLDSDGSFFLVSRLTVDKSRWQEGNVFSCSVMHEALHNHYTQKSLSLSLGKGGGGSEVQLLESGGGLVQPGGSLRLSCAASGFTFGNYDMAWVRQAPGKRPEWVSSIDTGGDITHYADSVKGRFTISRDNAKNTLYLQMNSLRPEDTAVYWCATDEEYALGPNEFDYYGQGTLVTVSS
B8: in experiment [1], the EC50 was found to be 22.4 nM and the Max effect/effect 1 µM was found to be 99%. For the same molecule, the EC50 (read off the curve) in experiment [2] came out at 4 nM. Also, the EC50 (read off the curve) in experiment [3] was determined as 4 nM.
